PMC3107886

Tests used:
[1] = biological target: soluble HLA-DR1 loaded with A2 peptide (human); assay: SEC
[2] = biological target: soluble gHgL (gH residue 18-679 and gL residue 24-137) (Epstein-Barr virus) (UniProt P03231); assay: SEC
Chain of UniProt P03231 (P03231 18-679 limits assumed, chain 1 of 2): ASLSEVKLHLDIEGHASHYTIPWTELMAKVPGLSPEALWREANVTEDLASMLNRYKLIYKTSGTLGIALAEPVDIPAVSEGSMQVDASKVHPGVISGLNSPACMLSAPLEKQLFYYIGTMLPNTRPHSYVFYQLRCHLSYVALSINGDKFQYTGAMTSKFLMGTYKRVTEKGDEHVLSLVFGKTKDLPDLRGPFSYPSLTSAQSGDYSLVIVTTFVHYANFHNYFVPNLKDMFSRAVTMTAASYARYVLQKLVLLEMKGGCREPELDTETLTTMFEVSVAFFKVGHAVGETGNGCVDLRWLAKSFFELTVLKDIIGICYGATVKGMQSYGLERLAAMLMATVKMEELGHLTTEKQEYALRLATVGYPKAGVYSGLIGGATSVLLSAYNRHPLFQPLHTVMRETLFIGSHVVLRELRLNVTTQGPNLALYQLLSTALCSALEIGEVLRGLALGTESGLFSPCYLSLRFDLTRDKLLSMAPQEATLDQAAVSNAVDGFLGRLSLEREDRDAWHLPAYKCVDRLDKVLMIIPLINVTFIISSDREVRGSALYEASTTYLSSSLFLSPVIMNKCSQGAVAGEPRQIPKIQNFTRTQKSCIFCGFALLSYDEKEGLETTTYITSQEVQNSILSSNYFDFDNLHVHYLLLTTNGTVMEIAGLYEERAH
Chain of UniProt P03231 (P03212 24-137 limits assumed, chain 2 of 2, further chain): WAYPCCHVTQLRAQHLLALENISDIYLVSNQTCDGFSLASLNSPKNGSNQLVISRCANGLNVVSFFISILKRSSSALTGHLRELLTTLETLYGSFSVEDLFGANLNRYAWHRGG

Substance: soluble gp42 (residue 33-223) (from UniProt P03205 33-223) (domain or fragment)
- stoichiometry N (gp42 per HLA-DR1) [1]: 1
- stoichiometry N (gp42 per gHgL) [2]: 1
